Biological target: MART-126-35/HLA-A2.1 tetramer (human)
Assay: equilibrium tetramer staining at 0.1-25 nM, flow cytometry, Scatchard plot (KD=1/slope)

In the case of “MART-1 TCR native PBMC (T cells obtained by leukapheresis from the MART-1 TCR donor patient)”, the Kd is reported as 4 to 6 nM.

From US20080199424A1
